Measured values: patent US20220098319A1 (SHANGHAI PHARMAEXPLORER, published 2022)
Where two headings read alike, the source gives them in different places.

How the values were obtained:
[1] = target: T1, His-tagged CD73 extracellular domain protein (hCD73 ECD-His) (human, UniProt P21589 27-547); experiment: Octet BLI, antibody on AHC sensor, antigen 50-200 nM, 1:1 fit
T1 construct: Expressed in CHO cells from pTT5-hCD73 ECD-His6, purified on nickel column; also called hCD73 ECD-His6; human CD73 ECD
T1 sequence: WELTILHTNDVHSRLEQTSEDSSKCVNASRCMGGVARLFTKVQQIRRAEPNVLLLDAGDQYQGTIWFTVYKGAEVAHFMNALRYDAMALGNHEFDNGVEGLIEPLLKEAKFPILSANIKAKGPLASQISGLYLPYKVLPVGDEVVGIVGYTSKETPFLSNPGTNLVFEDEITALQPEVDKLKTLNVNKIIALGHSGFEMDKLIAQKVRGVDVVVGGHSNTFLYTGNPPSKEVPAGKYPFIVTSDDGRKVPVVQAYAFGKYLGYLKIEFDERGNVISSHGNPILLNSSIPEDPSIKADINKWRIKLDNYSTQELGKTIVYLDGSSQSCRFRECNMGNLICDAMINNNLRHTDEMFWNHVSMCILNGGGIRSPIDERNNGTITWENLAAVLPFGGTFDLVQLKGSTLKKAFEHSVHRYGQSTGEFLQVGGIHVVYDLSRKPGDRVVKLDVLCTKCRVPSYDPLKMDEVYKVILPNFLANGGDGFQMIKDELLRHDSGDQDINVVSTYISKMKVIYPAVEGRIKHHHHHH
Excerpt: Octet Red 96 was selected as the test instrument, and AHC biosensor was selected as the test sensor in this experiment. Anti-human IgG Fc antibody has been immobilized on the AHC sensor, which can be used to directly capture the 15 antibodies in this experiment. Then the sensor was immersed in the analysis sample (antigen). There were five steps in this experiment: 1, Baseline (120 s) 2, Loading (capture antibody) (300 s) 3, Baseline (120 s) 4, Association (binding antigen) (180 s) 5, Dissociation (antigen dissociation) (1200 s). After the test was completed, the regeneration buffer (Glycine PH1.5) and the neutralization buffer (1*PBS buffer) were alternately immersed for 5 seconds, and the sensor was regenerated by a total of five cycles. The maximum number of sensor regeneration times is 10. The running buffer in this experiment is the sample diluent (1*PBS buffer containing 0.02% Tween20 and 0.1% BSA), that is, the buffer used in the Baseline step, the Dissociation step, and the blank analyte sample. Four sensors are used at one running in this experiment.
Sample treatment: all the antibodies were diluted to the working concentration of 10 ug/ml with sample diluent (1*PBS buffer containing 0.02% Tween20 and 0.1% BSA), and the analyte samples (antigens) were diluted to three working concentrations: 200 nM, 100 nM and 50 nM.
For data analysis, Octet Data Analysis (version 7.0) was used to calculate the response signal value (the signal of the coupled analyte sample minus the signal of the blank analyte sample), and a 1:1 binding model was used to fit the data.

[2] = target: T2, human CD73 (full length, on transfected CHOK1 cells) (human, UniProt P21589 27-549); experiment: cell-based or functional assay
T2 sequence (looked up): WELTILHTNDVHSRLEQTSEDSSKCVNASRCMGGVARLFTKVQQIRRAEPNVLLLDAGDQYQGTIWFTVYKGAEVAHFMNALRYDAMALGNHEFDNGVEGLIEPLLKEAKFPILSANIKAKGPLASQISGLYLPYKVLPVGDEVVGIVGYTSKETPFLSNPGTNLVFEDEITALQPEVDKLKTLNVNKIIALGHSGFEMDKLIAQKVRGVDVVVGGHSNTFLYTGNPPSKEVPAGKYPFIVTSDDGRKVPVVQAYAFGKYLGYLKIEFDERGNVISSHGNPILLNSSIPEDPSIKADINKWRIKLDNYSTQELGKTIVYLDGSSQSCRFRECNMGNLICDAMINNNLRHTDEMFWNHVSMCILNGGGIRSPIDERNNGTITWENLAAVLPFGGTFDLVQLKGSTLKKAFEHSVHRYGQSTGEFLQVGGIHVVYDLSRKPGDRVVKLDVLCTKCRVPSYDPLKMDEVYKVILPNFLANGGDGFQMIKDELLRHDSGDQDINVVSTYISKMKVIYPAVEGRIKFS

[3] = target: T3, murine CD73 (on transfected CHOK1 cells) (mouse, UniProt Q61503 29-551); experiment: FACS on CHOK1-mCD73 cells
T3 construct: whole, on cells; also called CHOK1-mCD73; mCD73
T3 sequence (looked up): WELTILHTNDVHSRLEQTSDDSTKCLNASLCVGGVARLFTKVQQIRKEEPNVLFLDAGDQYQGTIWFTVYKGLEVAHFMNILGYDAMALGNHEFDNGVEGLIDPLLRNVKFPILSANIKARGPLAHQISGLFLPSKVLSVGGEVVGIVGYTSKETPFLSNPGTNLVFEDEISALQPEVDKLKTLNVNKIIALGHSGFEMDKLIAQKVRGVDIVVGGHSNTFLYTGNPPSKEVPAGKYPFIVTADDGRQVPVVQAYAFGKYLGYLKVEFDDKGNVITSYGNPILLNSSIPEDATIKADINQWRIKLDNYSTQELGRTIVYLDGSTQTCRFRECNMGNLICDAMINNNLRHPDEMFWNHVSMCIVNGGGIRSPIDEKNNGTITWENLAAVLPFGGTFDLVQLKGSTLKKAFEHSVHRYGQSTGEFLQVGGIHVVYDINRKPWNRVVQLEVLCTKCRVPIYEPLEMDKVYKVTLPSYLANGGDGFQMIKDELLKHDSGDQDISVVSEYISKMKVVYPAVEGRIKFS

[4] = target: T4, cynomolgus monkey CD73 (on transfected CHOK1 cells) (cynomolgus monkey, UniProt A0A2K5V5U7 27-549); experiment: FACS on CHOK1-cCD73 cells
T4 construct: whole, on cells; also called CHOK1-cCD73; CHOK1-CCD73
T4 sequence: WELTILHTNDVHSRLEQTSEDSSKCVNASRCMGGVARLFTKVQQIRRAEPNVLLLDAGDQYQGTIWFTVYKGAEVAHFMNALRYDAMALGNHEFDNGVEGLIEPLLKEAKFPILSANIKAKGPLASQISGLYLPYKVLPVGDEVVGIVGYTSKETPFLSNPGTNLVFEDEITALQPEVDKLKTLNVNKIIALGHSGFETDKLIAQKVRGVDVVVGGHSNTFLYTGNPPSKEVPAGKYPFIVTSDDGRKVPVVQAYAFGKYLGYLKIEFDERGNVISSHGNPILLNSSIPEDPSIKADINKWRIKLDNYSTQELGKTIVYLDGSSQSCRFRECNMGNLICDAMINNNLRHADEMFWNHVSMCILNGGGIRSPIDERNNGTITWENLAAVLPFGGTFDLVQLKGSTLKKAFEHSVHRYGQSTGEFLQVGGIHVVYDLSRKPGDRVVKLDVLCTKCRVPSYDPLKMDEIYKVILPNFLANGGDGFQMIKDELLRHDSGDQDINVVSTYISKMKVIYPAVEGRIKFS

[5] = target: T2, human CD73 (full length, on transfected …); experiment: FACS on CHOK1-hCD73 cells
[6] = target: T4, cynomolgus monkey CD73 (on transfected …); experiment: FACS on CHOK1-cCD73 cells; remark: listed apart in the source
[7] = target: T2, human CD73 (full length, on transfected …); experiment: FACS on CHOK1-hCD73 cells
Description: The titration binding curve was produced by the following method:
The CHOK1 stable cell line transfected with human CD73 was expanded to a 75-90% confluence in a T-75 cell culture flask. The medium was aspirated, washed 1-2 times with PBS, and then treated with trypsin (Tryple express: Life technology) and cells were collected. The cells were washed with PBS buffer for 1-2 times. After counted, the cells were diluted with PBS to 1-2×10⁶ cells per ml, added with 1% fetal bovine serum (FBS) blocking solution, incubated on ice for 20-30 minutes, and then washed twice with HBSS by centrifugation. The collected cells were suspended with FACS buffer (PBS+2% FBS) to 2×10⁶ cells/ml, added to a 96-well FACS reaction plate at 100 microliters per well, and centrifuged at 300 g for 5 minutes to discard the supernatant. Anti-CD73 antibody was prepared with blocking solution to an initial concentration of 10 ug/ml and serially diluted at 8 points. 100 microliter per well of that antibody sample to be tested were added and incubated at 4° C. for 1-2 hours. […] The plate was washed 2-3 times with FACS buffer by centrifugation, added with 100 μl fixative solution (4% Paraformaldehyde) per well to suspend the cells. 5-10 minutes later, it was washed 1-2 times with FACS buffer by centrifugation. The cells were suspended with 100 microliters of FACS buffer, FACS (FACSCalibur, BD) was used for detection and the results were analyzed, as shown in FIG. 1 and Table 4.

[8] = target: T2, human CD73 (full length, on transfected …); experiment: cell-based or functional assay; remark: listed apart in the source
[9] = target: T3, murine CD73 (on transfected CHOK1 cells); experiment: FACS on CHOK1-mCD73 cells; remark: listed apart in the source

Row | Binder | Kd [1] | koff [1] | kon [1] | Inhibition assay of enzyme activity, IC50 [2] | Inhibition assay of enzyme activity, MAX % inhibition [2] | binding result [3] | EC50 [4] | MAX MFI fold [4] | EC50 [5] | MAX MFI fold [5] | EC50 [6] | MAX MFI [6] | EC50 [7] | MAX MFI [7] | Enzyme activity blocking assay, IC50 [8] | Enzyme activity blocking assay, MAX % inhibition [8] | binding result [9]
1 | mab020xhIgG1TM (clone 24D6B4), mouse-human chimeric anti-CD73 antibody (antibody, V domains shown, also called mAb020 chimeric antibody) VH: EVQLQQSGPELVKPGASVKIPCKASGYTFTDYNMDWVKQRHGKSLEWIGDINPNNGGTVYNQKFKGKATLTVDKSSNTAYMELRSLTSEDTAVYYCARISGTGYWYFDVWGTGTTVTVSS VL: DIQMTQSPASLSVSVGETVTITCRASENIYSNLAWYQQKQGKSPQLLVYGATNLADGVPSRFSGSDSGTQYSLKINSLQSEDFGSYYCQHFWGTPWTFGGGTKLEIK | 0.0751 nM | 1.91e-05 s⁻¹ | 255000 M⁻¹ s⁻¹ | 0.6 nM | 57.7% | no binding | 0.7 nM | 124 fold | 1.6 nM | 126 fold |  |  |  |  |  |  | 
2 | mab036xhIgG1TM (clone 66H6C12), mouse-human chimeric anti-CD73 antibody (antibody, V domains shown, also called mAb036 chimeric antibody) VH: QVQLQQSGAEVVKPGASVKISCKASGYVFSSYWINWVKQRPGKGLEWIGKIFPGNGDTDYNGNFKGKATLTADKSSSTAYMQLSSLTSEDSAVYFCAGFADWGQGTLVTVSA VL: DIQMTQSPSSLSASLGERVSLTCRASQDIGERLIWLQQEPDGTFKRLIYATSSLDSGVPKRFSGSSSGSDYSLTISRLESEDFVDYYCLQYASSPYTFGGGTKLEIK | 0.0213 nM | 6.42e-06 s⁻¹ | 301000 M⁻¹ s⁻¹ | 0.3 nM | 60.6% | no binding | 1.5 nM | 90.2 fold | 2 nM | 125 fold |  |  |  |  |  |  | 
3 | mab032xhIgG1TM (clone 56F12H8), mouse-human chimeric anti-CD73 antibody (antibody, V domains shown, also called mAb032 chimeric antibody) VH: EVQLVESGGDLVKPGGSLKLSCAASGFTFSTHGMSWVRQTPDKRLEWVAIISSDRSDIDYTDNVKGRFTISRDNGKNTLYLQMSSLKSEDTAIYHCARHRGYDGFYYAMDYWGQGTSVTVSS VL: DILMTQSPSSLTVTAGEKVTMSCRSSQSLLNSGNQKNYLTWYQQRPGRPPKLLIYWASTRISGVPDRFAGSGSGTDFTLTISIVQAEDLAVYYCQNDYSYPLTFGSGTKLELR | 0.279 nM | 1.95e-05 s⁻¹ | 70000 M⁻¹ s⁻¹ | 0.3 nM | 65.1% | no binding | 2.6 nM | 167 fold | 3.2 nM | 130 fold |  |  |  |  |  |  | 
4 | mAb032 (clone 56F12H8), murine anti-CD73 antibody (antibody, V domains shown, Purified from hybridoma supernatant) VH: EVQLVESGGDLVKPGGSLKLSCAASGFTFSTHGMSWVRQTPDKRLEWVAIISSDRSDIDYTDNVKGRFTISRDNGKNTLYLQMSSLKSEDTAIYHCARHRGYDGFYYAMDYWGQGTSVTVSS VL: DILMTQSPSSLTVTAGEKVTMSCRSSQSLLNSGNQKNYLTWYQQRPGRPPKLLIYWASTRISGVPDRFAGSGSGTDFTLTISIVQAEDLAVYYCQNDYSYPLTFGSGTKLELR |  |  |  |  |  |  |  |  |  |  | 0.7 nM | 6050 MFI | 2.6 nM | 7660 MFI | 1.2 nM | 66.9% | no binding (tested: 10 ug/ml initial concentration)
5 | mab034xhIgG1TM (clone 60G1C8), mouse-human chimeric anti-CD73 antibody (antibody, V domains shown, also called mAb034 chimeric antibody) VH: DVQLQESGPGLVKPSQSLSLTCSVTGYSITSRYYWNWIRQFPGNKLEWMGYMTYDGTNNYNPSLTNRISITRDTSKNQFFLKLNSVTAEDTATYFCARGGWDPFDYWGQGTTLTVSS VL: DIQMTQSPAALSASVGETVTITCRASDNIYSYLAWYQQKQGKCPQLLVKNAKTLAEGVPSRFSGSGSGTQFSLRINSLQPDDFGTYYCQHYYGTPLTFGAGTKLELK | 0.0577 nM | 2.36e-05 s⁻¹ | 409000 M⁻¹ s⁻¹ | 0.2 nM | 61.5% | no binding | > 10 nM | > 150 fold | 5.7 nM | 154 fold |  |  |  |  |  |  | 
